Biological target: sfGFP-Ensconsin (full length) (Drosophila)
Test: TIRF microscopy

fluorescence intensity of K560-mScarlet on microtubules with 25 nM sfGFP-Ensc: 34200 A.U.
Substance: K560-mScarlet (truncated Kinesin-1 motor) (domain or fragment)
